Patent US20240010741A1

Columns and labels:
recombinant CD40 protein = recombinant CD40 protein (UniProt P25942); experiment: CD40L competition ELISA: antibody (5 µg/ml) preincubated with recombinant CD40 (1.7 µg/ml), complex added to coated CD40L, detected with anti-human F(ab)2-peroxidase; a high signal means no competition with CD40L (antibody and CD40L bound to CD40 together)
cell-expressed CD40 = cell-expressed CD40 (UniProt P25942); experiment: cell binding on HEK-Blue-CD40L cells, Alexa-Fluor-488 anti-human IgG, high content imaging
Chain of cell-expressed CD40 (P25942 21-277 limits assumed): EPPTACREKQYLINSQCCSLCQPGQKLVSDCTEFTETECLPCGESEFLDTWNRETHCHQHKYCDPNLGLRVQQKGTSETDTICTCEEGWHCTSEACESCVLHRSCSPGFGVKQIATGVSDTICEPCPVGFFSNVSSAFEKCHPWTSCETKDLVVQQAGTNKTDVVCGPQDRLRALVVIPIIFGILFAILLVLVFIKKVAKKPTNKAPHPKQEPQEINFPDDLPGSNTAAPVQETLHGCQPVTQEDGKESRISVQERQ

Chain of recombinant CD40 protein (P25942 21-193 limits assumed): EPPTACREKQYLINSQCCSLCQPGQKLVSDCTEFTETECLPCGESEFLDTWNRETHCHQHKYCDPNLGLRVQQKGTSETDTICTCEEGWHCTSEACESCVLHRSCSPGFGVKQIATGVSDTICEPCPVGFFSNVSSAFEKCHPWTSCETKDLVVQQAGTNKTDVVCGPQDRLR

OD at 450 nm (recombinant CD40 protein): 2.54 OD
EC50 (cell-expressed CD40): 0.0145 µg/mL
Substance: CP-870,893 IgG1-LALA (antibody)
